Here are results for 1 molecule from patent US20210107996A1 (PROMAB BIOTECHNOLOGIES, published 2021).

The Kd is the equilibrium constant for the complex coming apart.

In this assay the target is T1, recombinant PLAP extracellular domain protein (Sino Biological) (human, UniProt P05187 23-506).
T1 construct: Bought protein; also called purified recombinant PLAP protein; PLAP antigen
The assay can be described thus: BLI (Blitz ForteBio); antibody captured on anti-mouse-capture biosensors, PLAP antigen in solution. The procedure: The binding of PLAP antibody with recombinant PLAP extracellular domain protein from Sino Biological was performed using Blitz ForteBio system as described. In brief, anti-mouse-capture (AMC) biosensors were soaked in kinetics buffer (PBS, 0.1% Tween, 0.05% BSA) for 10 min and then with mouse anti-PLAP antibody at 0.1 mg/mL in same buffer for 30 min. After washing, biosensors were used to bind the PLAP antigen at different concentrations. The Kd was detected with Blitz system software.
Background: In BLI a coated tip is dipped into the sample, and binding shifts an interference pattern.

T1 sequence (P05187 23-506): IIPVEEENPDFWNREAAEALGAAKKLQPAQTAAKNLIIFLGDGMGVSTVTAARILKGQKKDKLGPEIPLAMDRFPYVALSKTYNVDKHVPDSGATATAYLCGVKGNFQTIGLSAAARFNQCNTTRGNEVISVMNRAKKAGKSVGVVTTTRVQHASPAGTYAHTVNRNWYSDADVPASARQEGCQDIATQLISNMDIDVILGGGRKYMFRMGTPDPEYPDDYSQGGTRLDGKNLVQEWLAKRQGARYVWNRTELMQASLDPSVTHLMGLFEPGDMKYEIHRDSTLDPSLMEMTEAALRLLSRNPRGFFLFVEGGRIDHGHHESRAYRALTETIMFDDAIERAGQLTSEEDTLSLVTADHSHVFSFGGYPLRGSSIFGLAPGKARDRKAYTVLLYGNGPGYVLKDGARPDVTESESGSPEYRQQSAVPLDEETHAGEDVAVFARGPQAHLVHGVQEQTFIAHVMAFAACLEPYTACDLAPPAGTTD

B1: mouse monoclonal PLAP antibody (clone H17E2) (antibody, V domains shown)
VH: QVQLKESGPGLVAPSQSLSITCTVSGFSLTSYGVSWVRQPPRKGLEWLGVIWEDGSTNYHSALISRLSINKDNSKSQVFLKLNSLQTDDTATYYCAKPHYGSSYVGAMEYWGQGTSVTVSS
VL: DIQMTQSPASLTASVGETVTITCRASENIYSYVAWYQQKQGKSPQFLVYNAKSLAEGVPSRFSGSGSGTQFSLKINSLQPEDFGNYYCQHHYVSPWTFGGGTKLEIR
notes: Bought whole mouse monoclonal antibody (Thermo Fisher / Ximbio); also called PLAP antibody H17E2; mouse anti-PLAP antibody
For the molecule B1, the Kd was 3.2 nM.
